In article PMC4239663, “Structural basis for extracellular cis and trans RPTPσ signal competition in synaptogenesis” (Nature Communications, 2014) one finds induced presynaptic differentiation in rat hippocampal neurons co-cultured with COS-7 cells expressing mouse TrkC TM, with heparin-dp10 (30 μg/ml, ~10 μM) against mock and Kd data, which are given here for 12 molecules.

Substitutions are numbered along the chain they refer to. Names may count otherwise. “And” between values parts separate entries of the source, which are not always exact repeats. Equal values may be shown once. Some results are limits rather than exact numbers.

For orientation: Kd means the equilibrium constant for the complex coming apart.

The target of experiment [1] is human RPTPσ Ig1–3 (human).
The target of experiment [2] is human RPTPσ Ig1–3 R227A+R228A (R228A+R229A in human numbering), C-terminal Avitag (human). The experiment is described as follows: SPR; equilibrium; biotinylated human RPTPσ Ig1–3 (wild type or mutants) immobilized on streptavidin-coated CM5 chips, mouse TrkC LRRIg1 as analyte; 10 mM HEPES pH 7.5, 150 mM NaCl, 0.01% Tween 20, 25 °C.
Experiment [3] has as its target human RPTPσ Ig1–3 WT, C-terminal Avitag, immobilized (human). Described as above.
In experiment [4] the target is chicken TrkC LRRIg1 2N, C-terminal Avitag, immobilized (chicken, UniProt Q91044 32-302, N163Q | N232Q | N259Q | N267Q | N294Q, biotin on the Avitag (enzymatic)). The experiment in a line: SPR. For orientation: SPR reads the build-up and loss of mass on a sensor chip optically.
Experiment [5] has as its target mouse TrkC LRRIg1, C-terminal Avitag, immobilized (mouse) (UniProt Q6VNS1). The experiment is described as follows: SPR; equilibrium; biotinylated mouse TrkC LRRIg1 (wild type or D240A+D242A) immobilized on streptavidin-coated CM5 chips, human RPTP proteins as analytes; 10 mM HEPES pH 7.5, 150 mM NaCl, 0.01% Tween 20, 25 °C; in Fig. 6a also with increasing HS or heparin-dp10.

In another experiment the target is T1, mouse TrkC LRRIg1 2Q (Mus musculus).
T1 chain: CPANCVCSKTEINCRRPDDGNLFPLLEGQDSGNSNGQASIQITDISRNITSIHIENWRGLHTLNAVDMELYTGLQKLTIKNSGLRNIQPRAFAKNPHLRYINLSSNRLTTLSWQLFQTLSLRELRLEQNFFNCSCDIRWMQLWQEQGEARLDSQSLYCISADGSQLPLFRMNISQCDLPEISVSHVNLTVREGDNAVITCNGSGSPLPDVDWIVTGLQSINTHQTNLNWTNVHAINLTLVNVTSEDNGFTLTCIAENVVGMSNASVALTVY
The experiment in a line: SPR.

For experiment [6], the target named is T2, mouse TrkC LRRIg1 (soluble) (mouse, UniProt Q6VNS1 32-302).
T2 chain: T1 chain with Q37N, Q41N
The experiment in a line: SPR.

In a further experiment the target is chicken RPTPσ Ig1–3 (chicken, UniProt F1NWE3 29-316). The experiment in a line: SPR; equilibrium; biotinylated chicken TrkC LRRIg1 variants immobilized on streptavidin-coated CM5 chips, chicken RPTPσ Ig1–3 as analyte; 10 mM HEPES pH 7.5, 150 mM NaCl, 0.01% Tween 20, 25 °C; 1 M MgCl2 regeneration for LRRIg1 2Q. As to conditions: both partners purified.
Another experiment has as its target T3, mouse NGL-3 Ecto (mouse, UniProt P0C192 39-574, biotin on the Avitag (enzymatic)).
T3 chain: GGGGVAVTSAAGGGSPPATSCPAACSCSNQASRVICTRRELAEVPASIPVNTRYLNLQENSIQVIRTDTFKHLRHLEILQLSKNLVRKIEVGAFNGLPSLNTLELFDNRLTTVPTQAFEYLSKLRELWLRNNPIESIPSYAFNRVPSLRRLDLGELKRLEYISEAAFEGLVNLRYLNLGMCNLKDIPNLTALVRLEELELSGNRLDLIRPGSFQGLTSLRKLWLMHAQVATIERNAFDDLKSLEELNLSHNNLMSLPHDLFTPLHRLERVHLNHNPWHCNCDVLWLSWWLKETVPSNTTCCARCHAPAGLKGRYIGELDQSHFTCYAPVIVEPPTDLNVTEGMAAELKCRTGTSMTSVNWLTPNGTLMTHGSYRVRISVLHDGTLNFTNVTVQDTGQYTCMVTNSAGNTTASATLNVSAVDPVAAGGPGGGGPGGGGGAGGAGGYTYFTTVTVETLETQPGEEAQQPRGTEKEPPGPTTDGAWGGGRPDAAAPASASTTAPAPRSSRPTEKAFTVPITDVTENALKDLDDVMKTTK
The experiment is described as follows: SPR.

The target in experiment [7] is T4, mouse TrkC LRRIg1, C-terminal Avitag, immobilized (mouse, UniProt Q6VNS1 32-302, biotin on the Avitag (enzymatic)).
T4 chain: T1 chain with Q37N, Q41N
The experiment is described as follows: SPR.

With “mouse TrkC LRRIg1, C-terminal Avitag, immobilized (from UniProt Q6VNS1 32-302) (domain or fragment)”, the induced presynaptic differentiation in rat hippocampal neurons co-cultured with COS-7 cells expressing mouse TrkC TM, with heparin-dp10 (30 μg/ml, ~10 μM) against mock in experiment [1] is 2 fold.
As to “mouse TrkC LRRIg1 (soluble) (from UniProt Q6VNS1 32-302) (domain or fragment)”, the Kd was determined as 7 µM in experiment [2] and 1.8 µM in experiment [3].

B1: chicken RPTPσ Ig1–3, C-terminal Avitag, immobilized (domain or fragment)
chain: ESPPVFIKKPVDQIGVSGGVASFVCQATGDPKPRVTWNKKGKKVNSQRFETIEFDESAGAVLRIQPLRTPRDENIYECVAQNPHGEVTVHAKLTVLREDQLPPGFPNIDMGPQLKVVERTRTATMLCAASGNPDPEITWFKDFLPVDPSTSNGRIKQLRSGGLQIESSEETDQGKYECVASNSAGVRYSSPANLYVRELREVRRVAPRFSILPVSHEIMPGGNVNITCVAVGSPMPYVKWMQGAEDLTPEDDMPVGRNVLELTDVKDSANYTCVAMSSLGVIEAVAQI
modifications: biotin on the Avitag (enzymatic)
The molecule B1 had a Kd in experiment [4] of 2.5 µM.

B2: human RPTPσ Ig1–3 (domain or fragment)
chain: EEPPRFIKEPKDQIGVSGGVASFVCQATGDPKPRVTWNKKGKKVNSQRFETIEFDESAGAVLRIQPLRTPRDENVYECVAQNSVGEITVHAKLTVLREDQLPSGFPNIDMGPQLKVVERTRTATMLCAASGNPDPEITWFKDFLPVDPSASNGRIKQLRSGALQIESSEETDQGKYECVATNSAGVRYSSPANLYVRVRRVAPRFSILPMSHEIMPGGNVNITCVAVGSPMPYVKWMQGAEDLTPEDDMPVGRNVLELTDVKDSANYTCVAMSSLGVIEAVAQITVKSLPKA
On to B2, for which the Kd in experiment [5] was determined as 0.258 µM; in the experiment with mouse TrkC LRRIg1 2Q it was 0.14 µM.

B3: human RPTPσ Ig1–3 WT, C-terminal Avitag, immobilized (domain or fragment)
chain: B2 chain
modifications: biotin on the Avitag (enzymatic)
With B3, the Kd in [6] is 0.58 µM and 0.551 µM.

B4: human RPTPσ Ig1–3 ΔK (K68A+K69A+K71A+K72A) (domain or fragment)
chain: B2 chain with K39A, K40A, K42A, K43A
Consider B4, for which the Kd in experiment [6] stood at 2.8 µM.

B5: RPTPσ with the meB mini-exon inserted between R225 and V226 (domain or fragment)
chain: EEPPRFIKEPKDQIGVSGGVASFVCQATGDPKPRVTWNKKGKKVNSQRFETIEFDESAGAVLRIQPLRTPRDENVYECVAQNSVGEITVHAKLTVLREDQLPSGFPNIDMGPQLKVVERTRTATMLCAASGNPDPEITWFKDFLPVDPSASNGRIKQLRSGALQIESSEETDQGKYECVATNSAGVRYSSPANLYVRELREVRRVAPRFSILPMSHEIMPGGNVNITCVAVGSPMPYVKWMQGAEDLTPEDDMPVGRNVLELTDVKDSANYTCVAMSSLGVIEAVAQITVKSLPKA
In experiment [6], B5 showed a Kd of 4.8 µM.

B6: chicken TrkC LRRIg1 2N, C-terminal Avitag, immobilized (domain or fragment, UniProt Q91044 32-302, looked up)
chain: CPANCLCSKTDINCKKPDDGNLFPLLEGQDSGSSNGNTSINITDISRNITSIHIENWKNLQTLNAVDMELYTGLQRLTIRNSGLRNIQPRAFAKNPHLRYIDLSGNRLTTLSWQLFQTLRLFDLRLERNPFQCSCDIRWIQLWQEKGEANLQSQQLHCMNLDTAVILLRNMNITQCDLPEISVSHVNLTVREGENAVITCQGSGSPLPDVDWTVADLHSINTHQTNLQWTNVHAIQLTLVNVTSEDNGFLLTCIAENVVGMSQASVLLTVY
modifications: biotin on the Avitag (enzymatic)
notes: chicken TrkC LRRIg1, amino acids 32–302 of NCBI NM_205169.1, residues 63–77 re-added to LRRIg1cryst; not shown: Avitag (BirA recognition site), C-terminal, kept
B6 had a Kd with chicken RPTPσ Ig1–3 of 0.216 µM.

B7: chicken TrkC LRRIg1 2Q, C-terminal Avitag, immobilized (domain or fragment, UniProt Q91044 32-302, looked up)
chain: B6 chain with N37Q, N41Q
modifications: biotin on the Avitag (enzymatic)
notes: chicken TrkC LRRIg1, amino acids 32–302 of NCBI NM_205169.1, residues 63–77 re-added with N68Q+N72Q; not shown: Avitag (BirA recognition site), C-terminal, kept
B7 came in with a Kd with chicken RPTPσ Ig1–3 of 0.038 µM.

B8: human RPTPσ Ecto (domain or fragment)
chain: EEPPRFIKEPKDQIGVSGGVASFVCQATGDPKPRVTWNKKGKKVNSQRFETIEFDESAGAVLRIQPLRTPRDENVYECVAQNSVGEITVHAKLTVLREDQLPSGFPNIDMGPQLKVVERTRTATMLCAASGNPDPEITWFKDFLPVDPSASNGRIKQLRSGALQIESSEETDQGKYECVATNSAGVRYSSPANLYVRVRRVAPRFSILPMSHEIMPGGNVNITCVAVGSPMPYVKWMQGAEDLTPEDDMPVGRNVLELTDVKDSANYTCVAMSSLGVIEAVAQITVKSLPKAPGTPMVTENTATSITITWDSGNPDPVSYYVIEYKSKSQDGPYQIKEDITTTRYSIGGLSPNSEYEIWVSAVNSIGQGPPSESVVTRTGEQAPASAPRNVQARMLSATTMIVQWEEPVEPNGLIRGYRVYYTMEPEHPVGNWQKHNVDDSLLTTVGSLLEDETYTVRVLAFTSVGDGPLSDPIQVKTQQGVPGQPMNLRAEARSETSITLSWSPPRQESIIKYELLFREGDHGREVGRTFDPTTSYVVEDLKPNTEYAFRLAARSPQGLGAFTPVVRQRTLQSISPKNFKVKMIMKTSVLLSWEFPDNYNSPTPYKIQYNGLTLDVDGRTTKKLITHLKPHTFYNFVLTNRGSSLGGLQQTVTAWTAFNLLNGKPSVAPKPDADGFIMVYLPDGQSPVPVQSYFIVMVPLRKSRGGQFLTPLGSPEDMDLEELIQDISRLQRRSLRHSRQLEVPRPYIAARFSVLPPTFHPGDQKQYGGFDNRGLEPGHRYVLFVLAVLQKSEPTFAASPFSDPFQLDNPDPQPIVDGEEG
B8: the Kd in [5] is 0.516 µM; with mouse NGL-3 Ecto, more than 7.3 µM; in [7], 1.5 µM.

B9: chicken TrkC LRRIg1cryst, C-terminal Avitag, immobilized (domain or fragment, UniProt Q91044 32-302, looked up)
chain: CPANCLCSKTDINCKKPDDGNLFPLLEGQDSRNITSIHIENWKNLQTLNAVDMELYTGLQRLTIRNSGLRNIQPRAFAKNPHLRYIDLSGNRLTTLSWQLFQTLRLFDLRLERNPFQCSCDIRWIQLWQEKGEANLQSQQLHCMNLDTAVILLRNMNITQCDLPEISVSHVNLTVREGENAVITCQGSGSPLPDVDWTVADLHSINTHQTNLQWTNVHAIQLTLVNVTSEDNGFLLTCIAENVVGMSQASVLLTVY
modifications: biotin on the Avitag (enzymatic)
notes: chicken TrkC LRRIg1, amino acids 32–302 of NCBI NM_205169.1, lacking residues 63–77; not shown: Avitag (BirA recognition site), C-terminal, kept
In the case of B9, in the experiment with chicken RPTPσ Ig1–3, binding was put at a Kd of 4.8 µM.

B10: chicken RPTPσ Ig1-3 ΔK (protein)
chain: ESPPVFIKKPVDQIGVSGGVASFVCQATGDPKPRVTWNAAGAAVNSQRFETIEFDESAGAVLRIQPLRTPRDENIYECVAQNPHGEVTVHAKLTVLREDQLPPGFPNIDMGPQLKVVERTRTATMLCAASGNPDPEITWFKDFLPVDPSTSNGRIKQLRSGGLQIESSEETDQGKYECVASNSAGVRYSSPANLYVRVRRVAPRFSILPVSHEIMPGGNVNITCVAVGSPMPYVKWMQGAEDLTPEDDMPVGRNVLELTDVKDSANYTCVAMSSLGVIEAVAQITVKS
In the case of B10, in experiment [4], binding was characterised by a dissociation constant (Kd) of 2.6 µM.
